Data on 44 molecules can be found in patent publication US20210388087A1 (Chugai, published 2021).

To fix the notation:
B1: CE115HA000/GLS3000 S56T (antibody, IgG1, name in Kabat numbering, V domains shown)
VH: QVQLVESGGGVVQPGRSLRLSCAASGFTFSNAWMHWVRQAPGKGLEWVAQIKAKSNNYATYYAESVKGRFTISRDDSKNSLYLQMNSLKTEDTAVYYCRYVHYGAYYGVDAWGQGTTVTVSS
VL: DIVMTQSPLSLPVTPGEPASISCRSSQSLVHSNRNTYLHWYQQKPGQAPRLLIYKVSNRFTGVPDRFSGSGSGTDFTLKISRVEAEDVGVYYCGQGTQVPYTFGQGTKLEIK
notes: one-arm IgG1
B2: CE115HA000/GLS3000 V94A (antibody, IgG1, name in Kabat numbering, V domains shown)
VH: B1 VH
VL: B1 VL with T61S, V99A
notes: one-arm IgG1
B3: CE115HA000/GLS3000 T31K (antibody, IgG1, name in Kabat numbering, V domains shown)
VH: B1 VH
VL: B1 VL with T36K, T61S
notes: one-arm IgG1
B4: CE115HA000/GLS3000 V51E (antibody, IgG1, name in Kabat numbering, V domains shown)
VH: B1 VH
VL: B1 VL with V56E, T61S
notes: one-arm IgG1
B5: CE115HA000/GLS3000 T92I (antibody, IgG1, name in Kabat numbering, V domains shown)
VH: B1 VH
VL: B1 VL with T61S, T97I
notes: one-arm IgG1
B6: CE115HA000/GLS3000 V51D (antibody, IgG1, name in Kabat numbering, V domains shown)
VH: B1 VH
VL: B1 VL with V56D, T61S
notes: one-arm IgG1
B7: CE115HA000/GLS3000 V51G (antibody, IgG1, name in Kabat numbering, V domains shown)
VH: B1 VH
VL: B1 VL with V56G, T61S
notes: one-arm IgG1
B8: CE115HA000/GLS3000 T31P (antibody, IgG1, name in Kabat numbering, V domains shown)
VH: B1 VH
VL: B1 VL with T36P, T61S
notes: one-arm IgG1
B9: CE115HA000/GLS3000 V94G (antibody, IgG1, name in Kabat numbering, V domains shown)
VH: B1 VH
VL: B1 VL with T61S, V99G
notes: one-arm IgG1
B10: CE115HA000/GLS3000 V94M (antibody, IgG1, name in Kabat numbering, V domains shown)
VH: B1 VH
VL: B1 VL with T61S, V99M
notes: one-arm IgG1
B11: CE115HA000/GLS3000 V94K (antibody, IgG1, name in Kabat numbering, V domains shown)
VH: B1 VH
VL: B1 VL with T61S, V99K
notes: one-arm IgG1
B12: CE115HA000/GLS3000 T92Y (antibody, IgG1, name in Kabat numbering, V domains shown)
VH: B1 VH
VL: B1 VL with T61S, T97Y
notes: one-arm IgG1
B13: CE115HA000/GLS3000 T92L (antibody, IgG1, name in Kabat numbering, V domains shown)
VH: B1 VH
VL: B1 VL with T61S, T97L
notes: one-arm IgG1
B14: CE115HA000/GLS3000 V27cY (antibody, IgG1, name in Kabat numbering, V domains shown)
VH: B1 VH
VL: B1 VL with V30Y, T61S
notes: one-arm IgG1
B15: CE115HA000/GLS3000 V94I (antibody, IgG1, name in Kabat numbering, V domains shown)
VH: B1 VH
VL: B1 VL with T61S, V99I
notes: one-arm IgG1
B16: CE115HA000/GLS3000 V51I (antibody, IgG1, name in Kabat numbering, V domains shown)
VH: B1 VH
VL: B1 VL with V56I, T61S
notes: one-arm IgG1
B17: CE115HA000/GLS3000 V27cI (antibody, IgG1, name in Kabat numbering, V domains shown)
VH: B1 VH
VL: B1 VL with V30I, T61S
notes: one-arm IgG1
B18: CE115HA000/GLS3000 T92A (antibody, IgG1, name in Kabat numbering, V domains shown)
VH: B1 VH
VL: B1 VL with T61S, T97A
notes: one-arm IgG1
B19: CE115HA000/GLS3000 V94E (antibody, IgG1, name in Kabat numbering, V domains shown)
VH: B1 VH
VL: B1 VL with T61S, V99E
notes: one-arm IgG1
B20: CE115HA000/GLS3000 T92E (antibody, IgG1, name in Kabat numbering, V domains shown)
VH: B1 VH
VL: B1 VL with T61S, T97E
notes: one-arm IgG1
B21: CE115HA000/GLS3000 T92P (antibody, IgG1, name in Kabat numbering, V domains shown)
VH: B1 VH
VL: B1 VL with T61S, T97P
notes: one-arm IgG1
B22: CE115HA000/GLS3000 V27cE (antibody, IgG1, name in Kabat numbering, V domains shown)
VH: B1 VH
VL: B1 VL with V30E, T61S
notes: one-arm IgG1
B23: CE115HA000/GLS3000 V94P (antibody, IgG1, name in Kabat numbering, V domains shown)
VH: B1 VH
VL: B1 VL with T61S, V99P
notes: one-arm IgG1
B24: CE115HA000/GLS3000 V27cP (antibody, IgG1, name in Kabat numbering, V domains shown)
VH: B1 VH
VL: B1 VL with V30P, T61S
notes: one-arm IgG1
B25: CE115HA000/GLS3000 V51P (antibody, IgG1, name in Kabat numbering, V domains shown)
VH: B1 VH
VL: B1 VL with V56P, T61S
notes: one-arm IgG1
B26: CE115HA000/GLS3000 V94H (antibody, IgG1, name in Kabat numbering, V domains shown)
VH: B1 VH
VL: B1 VL with T61S, V99H
notes: one-arm IgG1
B27: CE115HA000/GLS3000 V94F (antibody, IgG1, name in Kabat numbering, V domains shown)
VH: B1 VH
VL: B1 VL with T61S, V99F
notes: one-arm IgG1
B28: CE115HA000/GLS3000 S56V (antibody, IgG1, name in Kabat numbering, V domains shown)
VH: B1 VH
VL: B1 VL with T61V
notes: one-arm IgG1
B29: CE115HA000/GLS3000 V27cL (antibody, IgG1, name in Kabat numbering, V domains shown)
VH: B1 VH
VL: B1 VL with V30L, T61S
notes: one-arm IgG1
B30: CE115HA000/GLS3000 V94N (antibody, IgG1, name in Kabat numbering, V domains shown)
VH: B1 VH
VL: B1 VL with T61S, V99N
notes: one-arm IgG1
B31: CE115HA000/GLS3000 T31N (antibody, IgG1, name in Kabat numbering, V domains shown)
VH: B1 VH
VL: B1 VL with T36N, T61S
notes: one-arm IgG1
B32: CE115HA000/GLS3000 V94L (antibody, IgG1, name in Kabat numbering, V domains shown)
VH: B1 VH
VL: B1 VL with T61S, V99L
notes: one-arm IgG1
B33: CE115HA000/GLS3000 T31E (antibody, IgG1, name in Kabat numbering, V domains shown)
VH: B1 VH
VL: B1 VL with T36E, T61S
notes: one-arm IgG1
B34: CE115HA000/GLS3000 T92D (antibody, IgG1, name in Kabat numbering, V domains shown)
VH: B1 VH
VL: B1 VL with T61S, T97D
notes: one-arm IgG1
B35: CE115HA000/GLS3000 T31I (antibody, IgG1, name in Kabat numbering, V domains shown)
VH: B1 VH
VL: B1 VL with T36I, T61S
notes: one-arm IgG1
B36: CE115HA000/GLS3000 V27cS (antibody, IgG1, name in Kabat numbering, V domains shown)
VH: B1 VH
VL: B1 VL with V30S, T61S
notes: one-arm IgG1
B37: CE115HA000/GLS3000 V94Q (antibody, IgG1, name in Kabat numbering, V domains shown)
VH: B1 VH
VL: B1 VL with T61S, V99Q
notes: one-arm IgG1
B38: CE115HA000/GLS3000 T31D (antibody, IgG1, name in Kabat numbering, V domains shown)
VH: B1 VH
VL: B1 VL with T36D, T61S
notes: one-arm IgG1
B39: CE115HA000/GLS3000 S56W (antibody, IgG1, name in Kabat numbering, V domains shown)
VH: B1 VH
VL: B1 VL with T61W
notes: one-arm IgG1
B40: CE115HA000/GLS3000 T97P (antibody, IgG1, name in Kabat numbering, V domains shown)
VH: B1 VH
VL: B1 VL with T61S, T102P
notes: one-arm IgG1
B41: CE115HA000/GLS3000 V94D (antibody, IgG1, name in Kabat numbering, V domains shown)
VH: B1 VH
VL: B1 VL with T61S, V99D
notes: one-arm IgG1
B42: CE115HA000/GLS3000 V27cD (antibody, IgG1, name in Kabat numbering, V domains shown)
VH: B1 VH
VL: B1 VL with V30D, T61S
notes: one-arm IgG1
B43: CE115HA000/GLS3000 S56Y (antibody, IgG1, name in Kabat numbering, V domains shown)
VH: B1 VH
VL: B1 VL with T61Y
notes: one-arm IgG1
B44: CE115HA000/GLS3000 T92S (antibody, IgG1, name in Kabat numbering, V domains shown)
VH: B1 VH
VL: B1 VL with T61S, T97S
notes: one-arm IgG1

Positions count from the first letter of the chain named.

For the assay, the target named is T1, CD3 epsilon homodimer protein (UniProt P07766 23-126).
T1 construct: also called CD3 (CD3 epsilon)
T1 sequence (P07766 23-126): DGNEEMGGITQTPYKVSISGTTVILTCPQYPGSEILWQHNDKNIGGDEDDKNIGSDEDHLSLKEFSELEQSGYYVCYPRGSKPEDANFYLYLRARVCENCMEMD
The assay is described as follows: SPR, antibody over immobilised CD3e homodimer.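 Also: SPR at 25 °C with CD3 epsilon homodimer amine-coupled to a CM4 sensor chip and antibody flowed over as analyte in HBS-EP+ running buffer.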 A general note: In SPR one partner is held on a chip, and binding of the other changes the refractive index at the surface.
Procedure: An appropriate amount of CD3 epsilon homodimer protein was immobilized onto Sensor chip CM4 (GE Healthcare Japan Corp.) by the amine coupling method. Then, the antibody having an appropriate concentration was injected thereto as an analyte and allowed to interact with the CD3 epsilon homodimer protein on the sensor chip. Then, the sensor chip was regenerated by the injection of 10 mmol/L glycine-HCl (pH 1.5). The assay was conducted at 25 degrees C., and HBS-EP+(GE Healthcare Japan Corp.) was used as a running buffer. […] Each parameter was calculated using Biacore T200 Evaluation Software (GE Healthcare Japan Corp.).
Take B1: the “KD ratio to GLS3000” value amounted to 1.01.

In the case of B2, the “KD ratio to GLS3000” value worked out at 1.05.

In the case of B3, the “KD ratio to GLS3000” value was 0.88.

As for B4, the “KD ratio to GLS3000” value turned out to be 0.88.

On to B5, for which the “KD ratio to GLS3000” value came out at 1.91.

Consider B6, for which the “KD ratio to GLS3000” value worked out at 1.5.

As for B7, the “KD ratio to GLS3000” value was determined as 0.83.

Take B8: the “KD ratio to GLS3000” value amounted to 10.8.

Take B9: the “KD ratio to GLS3000” value is 2.59.

Take B10: the “KD ratio to GLS3000” value is 2.74.

Consider B11, for which the “KD ratio to GLS3000” value stood at 0.91.

B12: the “KD ratio to GLS3000” value was 2.55.

Turning to B13, the “KD ratio to GLS3000” value stood at 1.61.

Consider B14, for which the “KD ratio to GLS3000” value was determined as 1.25.

As to B15, the “KD ratio to GLS3000” value worked out at 1.46.

With B16, the “KD ratio to GLS3000” value was determined as 0.69.

For B17, the “KD ratio to GLS3000” value was found to be 1.03.

B18: the “KD ratio to GLS3000” value came out at 1.35.

Consider B19, for which the “KD ratio to GLS3000” value came to 1.18.

As for B20, the “KD ratio to GLS3000” value was 19.6.

As to B21, the “KD ratio to GLS3000” value stood at 26.7.

B22: the “KD ratio to GLS3000” value is 1.1.

With B23, the “KD ratio to GLS3000” value was determined as 1.1.

On to B24, for which the “KD ratio to GLS3000” value turned out to be 3.71.

Consider B25, for which the “KD ratio to GLS3000” value worked out at 6.

Take B26: the “KD ratio to GLS3000” value was 1.16.

As to B27, the “KD ratio to GLS3000” value amounted to 1.75.

As to B28, the “KD ratio to GLS3000” value was 0.94.

With B29, the “KD ratio to GLS3000” value was found to be 0.81.

Regarding B30, the “KD ratio to GLS3000” value came to 0.96.

Turning to B31, the “KD ratio to GLS3000” value stood at 4.46.

As for B32, the “KD ratio to GLS3000” value is 3.06.

With B33, the “KD ratio to GLS3000” value is 1.59.

Regarding B34, the “KD ratio to GLS3000” value was determined as 11.2.

For B35, the “KD ratio to GLS3000” value was determined as 1.1.

For the molecule B36, the “KD ratio to GLS3000” value came to 3.04.

For the molecule B37, the “KD ratio to GLS3000” value was 1.1.

Take B38: the “KD ratio to GLS3000” value came to 30.9.

As for B39, the “KD ratio to GLS3000” value stood at 1.12.

B40: the “KD ratio to GLS3000” value amounted to 3.35.

With B41, the “KD ratio to GLS3000” value is 1.05.

Consider B42, for which the “KD ratio to GLS3000” value was found to be 3.21.

B43: the “KD ratio to GLS3000” value worked out at 1.1.

Consider B44, for which the “KD ratio to GLS3000” value was determined as 0.81.
